Data on three substances can be found in US20170204142A1.

Assay [1] addresses full-length H1N1 A/Puerto Rico/8/34 recombinant HA (rHA) (influenza A virus H1N1 A/Puerto Rico/8/34) (UniProt P03452).
Assay [2] addresses H1HA10 (influenza A virus H1N1 A/Puerto Rico/8/34) (UniProt A4GCI6).

By Kd is commonly meant the concentration at which binding is half-saturated. As a reminder, the koff is a measure of how fast the partners let go of each other. As usually defined, the kon is a measure of how fast the partners come together. In the case of CR6261 IgG (antibody), in assay [1], the equilibrium dissociation constant (Kd) was found to be 8.9 nM, the off-rate (koff) worked out at 0.00258 s⁻¹ and the on-rate constant (kon) turned out to be 289000 M⁻¹ s⁻¹. In assay [2], this substance yielded a Kd of 315 nM, a koff of 0.00785 s⁻¹ and a kon of 24900 M⁻¹ s⁻¹.
For the substance F10-scFv, in assay [1], the Kd amounted to 2.9 nM, the koff was determined as 0.00121 s⁻¹ and the association rate constant (kon) is 415000 M⁻¹ s⁻¹.
For FI6v3-scFv, in assay [1], the dissociation constant Kd turned out to be 8.8 nM, the off-rate (koff) came out at 0.00216 s⁻¹ and the on-rate constant (kon) turned out to be 245000 M⁻¹ s⁻¹.
